What all share (test): cell_activity
The subject of data set [1] is 8196zDR D450N D483R,D450N (FokI) (synthetic construct). Conditions: TI with 8267RD; NHEJ 0.0.
Data set [2] has as its system 8196zDR D467A D483R,D467A (FokI) (synthetic construct). Conditions: TI with 8267RD; NHEJ 0.0.
Data set [3] relates to 8196zDR D483R (FokI) (synthetic construct). Conditions: NHEJ with 8267RD; TI 28.4%.
Data set [4] deals with 8196zKK (ZFN-R-KK) E490K,I538K (FokI) (synthetic construct). Conditions: NHEJ with 8267EL; TI 29.4%; K562.
Data set [5] has as its system 8196zKK D467A E490K,I538K,D467A (FokI) (synthetic construct). Conditions: TI with 8267EL; NHEJ 0.0.
Data set [6] has as its system 8267RD R487D (FokI) (synthetic construct). Conditions: NHEJ with 8196zDR; TI 28.4%.

The results in this text go back to patent publication US20100047805.

For the substance CCR5 endogenous locus (K562), the activity was 1.2% in data set [1]; 0.7% in data set [2]; 36.7% in data set [3]; 54.3% in data set [4]; 1.1% in data set [5]; 36.7% in data set [6].
